Laboratory results: patent publication US7906616B2, “Truncated DANCE, DANCE complex and method of using these” (Kansai Medical University, priority 2004, dated 2011)

Columns and labels:
DANCE-specific protease [1] = assay: Inhibition of DANCE cleavage by protease inhibitors in transfected 293T cells; type: cell-based; conditions: 293T cells expressing human DANCE, serum-free medium with inhibitor, 48 hours; Western blotting with anti-FLAG M2
Procedure: 293T cells were used in expression experiments. Transfection was performed using the Lipofect AMINE Plus reagent as directed in the product instructions. 24 hours after transfection, the medium was exchanged with serum-free medium, and cultivation was continued for 48 hours; the resulting supernatant or cell lysate was used for Western blotting and in vitro binding assay.
A human DANCE cDNA with FLAG tag and 6×His tag added to the carboxyl terminus thereof was transfected to 293T cells; the cells were cultured using a serum-free medium comprising a cysteine protease inhibitor (E64) or serine protease inhibitor (aprotinin) for 48 hours; a recombinant protein was precipitated from the culture supernatant using Ni-NTA agarose and was developed by SDS-PAGE and Western blotting was performed using anti-FLAG M2 antibody.

DANCE-specific protease [2] = assay: Cleavage of mutated versus normal form of DANCE expressed in 293T cells; type: cell-based, human; conditions: Arg77 substituted with Ala, serum-free medium 48 hours, Western blotting with anti-FLAG M2
Source text: The 77th amino acid of human DANCE, arginine, was substituted with alanine using the Quick Change in vitro mutagenesis kit (Stratagene). The other procedures were the same as pEF6-hDANCE-FLAG.
An expression vector for the mutated form of DANCE resulting from the substitution of the 77th arginine of DANCE with alanine (with C-terminal FLAG and 6×His tag) (FIG. 7), and an expression vector for normal form of DANCE (with C-terminal FLAG and 6×His tag) were transfected to 293T cells; the cells were cultured using serum-free medium for 48 hours; a recombinant protein was precipitated from the culture supernatant using Ni-NTA agarose, and developed by SDS-PAGE, and Western blotting was performed using anti-FLAG M2 antibody.

[3] = test system: vascular endothelial cells; assay: Vascular endothelial cell adhesion assay; type: cell-based; conditions: purified recombinant protein used for coating
Source text: Full-length DANCE promotes the adhesion and extension of vascular endothelial cells via cell surface integrin. The present inventor has reported to date that full-length DANCE can serve as a ligand for the integrins αvβ3, αvβ5, and α9β1. Since the domain serving as the ligand is considered to be around the RGD motif of the amino-terminal domain of DANCE, each recombinant protein of a DANCE mutant wherein RGD was replaced with RGE for one-amino-acid substitution (RGE DANCE), and amino-terminal cleaved form of DANCE (ΔND DANCE) were purified, and these, along with full-length DANCE, were subjected to vascular endothelial cell adhesion assay (FIG. 13).

human skin fibroblasts = assay: Formation of elastic fibers in cultured human skin fibroblasts; type: cell-based
Procedure: Human fibroblasts were kindly supplied by the Department of Plastic Surgery, Kyoto University Hospital. A cover glass was placed on the bottom of a 24-well plate, on which human fibroblasts were seeded at 7.5×10^4 cells per well, and cultured in a DMEM medium supplemented with 10% FBS at 37° C. in the presence of 5% CO2. After the plate washed with PBS on Day 3, the medium was exchanged with a DMEM/F12 medium not supplemented with FBS, and purified DANCE protein, cleaved form of DANCE protein 4 μg/ml, or FBS was added. Cultivation was continued at 37° C. in the presence of 5% CO2, and the cells were fixed and immunologically stained on Day 14.
On Day 14 of cultivation, the cells were washed with 1 ml of PBS three times, after which they were fixed with 100% methanol at −20° C. for 30 minutes. After washing with PBS, the cells were subjected to blocking with a PBS containing 2% BSA at room temperature for 30 minutes, after which the cells were incubated with the polyclonal anti-elastin antibody (dilution rate 1/100) and the monoclonal anti-FLAG antibody (dilution rate 1/100) at room temperature for at least 1 hour. The cells were washed with PBS and further incubated with the anti-rabbit Alexa Fluor 488 antibody (dilution rate 1/100) and the anti-mouse Alexa Fluor 546 antibody (dilution rate 1/100) at room temperature for 1 hour. After washing with PBS, the cells were fixed with 4% para-formaldehyde at room temperature for 10 minutes and again washed with PBS, after which the sample was mounted onto a glass slide using a DAPI-containing Vectashield. Examination was performed using a confocal microscope.
Human skin fibroblasts were seeded to reach confluency; the medium was replaced with serum-free medium or a medium containing 10% fetal calf serum; the cells were cultured for 2 weeks; the formation of elastic fibers was analyzed by immunostaining with anti-elastin antibody.

DANCE = molecular target: T1, DANCE (Bos taurus, UniProt Q5EA62); assay: Precipitation of DANCE-binding proteins from smooth muscle cell culture supernatant (homo-complex); conditions: 50 μg recombinant human DANCE mixed with 35S-labeled bovine arterial smooth muscle cell supernatant, anti-FLAG precipitation
T1 construct: After bovine arterial smooth muscle cells seeded on a 9-cm plate were labeled with 35S-Met and Cys for 24 hours; host or cells: bovine arterial smooth muscle cells (culture supernatant); bait purified from stably transfected 293T cells
T1 sequence (Q5EA62 24-448): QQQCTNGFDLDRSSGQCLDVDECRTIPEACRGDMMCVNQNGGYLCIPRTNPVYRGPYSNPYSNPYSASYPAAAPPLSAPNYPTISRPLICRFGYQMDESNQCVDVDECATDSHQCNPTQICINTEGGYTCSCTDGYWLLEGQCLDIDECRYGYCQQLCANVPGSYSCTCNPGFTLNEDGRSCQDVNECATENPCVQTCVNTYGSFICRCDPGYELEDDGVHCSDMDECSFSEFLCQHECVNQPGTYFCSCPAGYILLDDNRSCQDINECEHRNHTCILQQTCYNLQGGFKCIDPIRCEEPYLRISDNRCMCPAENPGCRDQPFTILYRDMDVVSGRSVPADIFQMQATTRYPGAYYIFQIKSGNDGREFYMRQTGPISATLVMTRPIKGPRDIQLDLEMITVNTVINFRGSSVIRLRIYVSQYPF
T1 sequence (Q9UBX5 24-448 partner): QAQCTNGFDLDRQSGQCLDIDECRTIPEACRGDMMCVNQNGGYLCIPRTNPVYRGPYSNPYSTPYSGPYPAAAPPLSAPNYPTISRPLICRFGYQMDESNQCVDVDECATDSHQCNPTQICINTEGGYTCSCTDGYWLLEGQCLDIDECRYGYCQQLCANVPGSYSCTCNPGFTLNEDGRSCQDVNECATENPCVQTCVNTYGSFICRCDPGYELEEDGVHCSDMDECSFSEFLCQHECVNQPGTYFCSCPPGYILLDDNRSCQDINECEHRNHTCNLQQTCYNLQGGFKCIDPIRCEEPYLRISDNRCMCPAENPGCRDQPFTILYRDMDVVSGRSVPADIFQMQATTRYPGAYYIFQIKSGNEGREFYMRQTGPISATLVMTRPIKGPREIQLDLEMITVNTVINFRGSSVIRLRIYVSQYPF
Procedure: (§1) After bovine arterial smooth muscle cells seeded on a 9-cm plate were labeled with 35S-Met and Cys for 24 hours, the culture supernatant and 50 μg of recombinant human DANCE (with C-terminal FLAG and 6×His) were mixed and precipitated with anti-FLAG agarose (Sigma), and the resulting precipitate was developed by SDS-PAGE and autoradiography was performed. The same culture supernatant was immunoprecipitated with commercially available antibodies against elastic fiber constituent protein (elastin, fibrillin 1, fibrillin 2 and LTBP2), and developed with the same SDS-PAGE gel, and autoradiography was performed.

human lysyl oxidase = molecular target: T2, human lysyl oxidase (Homo sapiens, UniProt P28300); assay: In vitro binding assay, DANCE with lysyl oxidase; conditions: anti-FLAG precipitation, anti-Myc detection
T2 construct: The 22nd amino acid to the 417th amino acid of the polypeptide (417 amino acids) encoded by human lysyl oxidase; expressed in transfected cells
T2 sequence (P28300 22-417): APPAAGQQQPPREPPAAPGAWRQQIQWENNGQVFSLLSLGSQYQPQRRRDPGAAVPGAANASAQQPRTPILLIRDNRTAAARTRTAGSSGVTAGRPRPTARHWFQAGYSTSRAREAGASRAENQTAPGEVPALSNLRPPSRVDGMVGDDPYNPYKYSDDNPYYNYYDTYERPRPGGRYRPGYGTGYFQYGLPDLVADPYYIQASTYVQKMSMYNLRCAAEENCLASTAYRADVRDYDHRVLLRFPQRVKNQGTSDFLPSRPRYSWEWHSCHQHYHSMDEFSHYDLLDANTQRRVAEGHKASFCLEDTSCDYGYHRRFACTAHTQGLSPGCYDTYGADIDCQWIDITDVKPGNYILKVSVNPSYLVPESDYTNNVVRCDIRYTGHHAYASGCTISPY
T2 sequence (Q9UBX5 24-448 partner): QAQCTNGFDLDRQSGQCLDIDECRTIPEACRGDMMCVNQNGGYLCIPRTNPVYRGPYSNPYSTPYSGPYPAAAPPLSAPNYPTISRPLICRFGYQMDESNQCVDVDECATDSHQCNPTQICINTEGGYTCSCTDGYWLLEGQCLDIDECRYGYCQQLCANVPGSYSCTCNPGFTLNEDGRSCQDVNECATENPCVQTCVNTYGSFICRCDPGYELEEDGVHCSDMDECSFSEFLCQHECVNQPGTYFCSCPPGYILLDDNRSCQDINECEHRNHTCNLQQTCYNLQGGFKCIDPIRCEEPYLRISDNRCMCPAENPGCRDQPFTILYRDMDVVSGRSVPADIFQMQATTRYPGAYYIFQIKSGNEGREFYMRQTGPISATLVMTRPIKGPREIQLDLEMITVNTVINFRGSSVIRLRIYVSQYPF
Procedure: The 22nd amino acid to the 417th amino acid of the polypeptide (417 amino acids) encoded by human lysyl oxidase (GenBank accession number: AF039291.1) cDNA was amplified by a PCR method and incorporated in the XbaI/NotI site of pEF6/ssMyc.
A human DANCE construct with FLAG tag (FIG. 8), a human DANCE construct with Myc tag, and a human LTBP2 construct were separately transfected to 293T cells. After cultivation in serum-free medium for 48 hours, each culture supernatant and cell extract were mixed, and this was used as the protein solution. A protein solution from the DANCE construct with FLAG tag and a protein solution from DANCE or LTBP2 with Myc tag were mixed on ice for 1 hour, and precipitated with anti-FLAG antibody, and the resulting precipitate was developed by SDS-PAGE, and detected using anti-Myc antibody or anti-FLAG antibody.
The assay was performed in the same manner as Example 6 except that a precipitate obtained using anti-FLAG antibody was developed by SDS-PAGE and detected using anti-Myc antibody.

LTBP2 = molecular target: T3, LTBP2 (Bos taurus, UniProt Q28019); assay: Precipitation of DANCE-binding proteins from smooth muscle cell culture supernatant (LTBP2); conditions: 50 μg recombinant human DANCE mixed with 35S-labeled bovine arterial smooth muscle cell supernatant, anti-FLAG precipitation
T3 construct: host or cells: bovine arterial smooth muscle cells (culture supernatant); bait purified from stably transfected 293T cells
Procedure: as §1

T3 sequence (Q28019 36-1842, one chain of several): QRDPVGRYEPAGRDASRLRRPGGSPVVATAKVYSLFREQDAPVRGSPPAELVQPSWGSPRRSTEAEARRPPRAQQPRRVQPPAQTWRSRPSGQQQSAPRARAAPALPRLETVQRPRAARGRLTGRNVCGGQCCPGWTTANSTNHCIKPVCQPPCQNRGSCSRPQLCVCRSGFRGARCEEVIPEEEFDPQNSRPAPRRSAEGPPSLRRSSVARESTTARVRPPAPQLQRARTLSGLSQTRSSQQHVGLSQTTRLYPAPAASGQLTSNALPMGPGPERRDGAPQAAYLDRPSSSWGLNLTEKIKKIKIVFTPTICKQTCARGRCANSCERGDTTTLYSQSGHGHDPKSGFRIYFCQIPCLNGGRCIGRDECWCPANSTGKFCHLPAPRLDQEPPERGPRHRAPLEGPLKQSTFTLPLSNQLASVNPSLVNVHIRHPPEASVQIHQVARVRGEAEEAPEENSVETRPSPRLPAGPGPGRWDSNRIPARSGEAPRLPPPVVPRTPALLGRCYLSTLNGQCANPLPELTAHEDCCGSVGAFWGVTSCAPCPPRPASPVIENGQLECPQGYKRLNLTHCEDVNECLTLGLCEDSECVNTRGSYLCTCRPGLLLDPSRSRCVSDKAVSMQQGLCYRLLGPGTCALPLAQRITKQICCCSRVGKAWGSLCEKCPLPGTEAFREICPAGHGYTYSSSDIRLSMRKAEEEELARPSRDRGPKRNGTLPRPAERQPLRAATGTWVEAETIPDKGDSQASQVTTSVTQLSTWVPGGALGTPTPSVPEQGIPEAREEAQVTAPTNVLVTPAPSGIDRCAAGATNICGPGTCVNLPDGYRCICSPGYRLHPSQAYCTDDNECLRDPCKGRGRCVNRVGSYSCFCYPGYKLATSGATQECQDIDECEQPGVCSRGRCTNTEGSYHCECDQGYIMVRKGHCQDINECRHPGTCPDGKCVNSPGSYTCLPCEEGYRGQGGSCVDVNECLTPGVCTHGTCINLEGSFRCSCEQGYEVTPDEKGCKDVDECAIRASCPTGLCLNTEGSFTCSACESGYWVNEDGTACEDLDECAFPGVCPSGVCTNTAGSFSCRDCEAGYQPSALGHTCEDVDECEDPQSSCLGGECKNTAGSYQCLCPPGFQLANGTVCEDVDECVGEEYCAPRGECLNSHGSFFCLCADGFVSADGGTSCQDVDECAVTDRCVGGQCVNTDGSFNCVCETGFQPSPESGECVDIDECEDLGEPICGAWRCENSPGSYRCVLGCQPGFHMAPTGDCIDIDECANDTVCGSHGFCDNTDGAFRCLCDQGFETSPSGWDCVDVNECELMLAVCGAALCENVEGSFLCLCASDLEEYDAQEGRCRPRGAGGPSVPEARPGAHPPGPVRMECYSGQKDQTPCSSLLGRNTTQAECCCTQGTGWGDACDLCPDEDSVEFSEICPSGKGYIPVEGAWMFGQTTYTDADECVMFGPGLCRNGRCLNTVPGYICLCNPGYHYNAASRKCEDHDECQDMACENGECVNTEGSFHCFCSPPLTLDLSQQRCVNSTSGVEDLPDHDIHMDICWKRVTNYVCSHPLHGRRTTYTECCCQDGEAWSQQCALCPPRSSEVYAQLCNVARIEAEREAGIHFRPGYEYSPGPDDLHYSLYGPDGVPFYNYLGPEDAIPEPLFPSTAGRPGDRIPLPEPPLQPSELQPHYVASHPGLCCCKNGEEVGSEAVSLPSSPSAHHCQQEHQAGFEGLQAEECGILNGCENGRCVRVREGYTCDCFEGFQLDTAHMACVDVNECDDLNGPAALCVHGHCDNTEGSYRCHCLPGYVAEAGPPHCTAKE

Molecule: aprotinin
- inhibition of the cleavage of DANCE (DANCE-specific protease [1]): inhibited

Molecule: CC(C)C[C@H](NC(=O)[C@H]1O[C@@H]1C(=O)O)C(=O)NCCCCN=C(N)N [E64]
- inhibition of the cleavage of DANCE (DANCE-specific protease [1]): not inhibited

B1: mutated form of DANCE: mutated form of DANCE resulting from the substitution of the 77th arginine of DANCE with alanine (protein, UniProt Q9UBX5 24-448, looked up, variant R77A)
Fibulin-5: QAQCTNGFDLDRQSGQCLDIDECRTIPEACRGDMMCVNQNGGYLCIPRTNPVYAGPYSNPYSTPYSGPYPAAAPPLSAPNYPTISRPLICRFGYQMDESNQCVDVDECATDSHQCNPTQICINTEGGYTCSCTDGYWLLEGQCLDIDECRYGYCQQLCANVPGSYSCTCNPGFTLNEDGRSCQDVNECATENPCVQTCVNTYGSFICRCDPGYELEEDGVHCSDMDECSFSEFLCQHECVNQPGTYFCSCPPGYILLDDNRSCQDINECEHRNHTCNLQQTCYNLQGGFKCIDPIRCEEPYLRISDNRCMCPAENPGCRDQPFTILYRDMDVVSGRSVPADIFQMQATTRYPGAYYIFQIKSGNEGREFYMRQTGPISATLVMTRPIKGPREIQLDLEMITVNTVINFRGSSVIRLRIYVSQYPF
- resistance to cleavage with a protease (DANCE-specific protease [2]): exhibit resistance to cleavage with a protease

B2: RGE DANCE: DANCE mutant wherein RGD was replaced with RGE for one-amino-acid substitution (protein)
chain: QAQCTNGFDLDRQSGQCLDIDECRTIPEACRGEMMCVNQNGGYLCIPRTNPVYRGPYSNPYSTPYSGPYPAAAPPLSAPNYPTISRPLICRFGYQMDESNQCVDVDECATDSHQCNPTQICINTEGGYTCSCTDGYWLLEGQCLDIDECRYGYCQQLCANVPGSYSCTCNPGFTLNEDGRSCQDVNECATENPCVQTCVNTYGSFICRCDPGYELEEDGVHCSDMDECSFSEFLCQHECVNQPGTYFCSCPPGYILLDDNRSCQDINECEHRNHTCNLQQTCYNLQGGFKCIDPIRCEEPYLRISDNRCMCPAENPGCRDQPFTILYRDMDVVSGRSVPADIFQMQATTRYPGAYYIFQIKSGNEGREFYMRQTGPISATLVMTRPIKGPREIQLDLEMITVNTVINFRGSSVIRLRIYVSQYPF
modifications: left off: small tags and cut ends
notes: DANCE mutant wherein RGD was replaced with RGE for one-amino-acid substitution
- cell adhesion activity [3]: almost no cell adhesion activity

B3: DANCE: secretory protein (developmental arteries and neural crest EGF-like; fibulin-5), SEQ ID NO:2 or 4; recombinant human form with C-terminal FLAG and 6×His (protein, listed as Homo sapiens)
chain: MPGIKRILTVTILALCLPSPGNAQAQCTNGFDLDRQSGQCLDIDECRTIPEACRGDMMCVNQNGGYLCIPRTNPVYRGPYSNPYSTPYSGPYPAAAPPLSAPNYPTISRPLICRFGYQMDESNQCVDVDECATDSHQCNPTQICINTEGGYTCSCTDGYWLLEGQCLDIDECRYGYCQQLCANVPGSYSCTCNPGFTLNEDGRSCQDVNECATENPCVQTCVNTYGSFICRCDPGYELEEDGVHCSDMDECSFSEFLCQHECVNQPGTYFCSCPPGYILLDDNRSCQDINECEHRNHTCNLQQTCYNLQGGFKCIDPIRCEEPYLRISDNRCMCPAENPGCRDQPFTILYRDMDVVSGRSVPADIFQMQATTRYPGAYYIFQIKSGNEGREFYMRQTGPISATLVMTRPIKGPREIQLDLEMITVNTVINFRGSSVIRLRIYVSQYPF
modifications: C-terminal FLAG and 6xHis tags
notes: secretory protein (developmental arteries and neural crest EGF-like); recombinant human form with C-terminal FLAG and 6×His
- formation of elastic fibers (anti-elastin immunostaining) (human skin fibroblasts; protein added to serum-free medium at 4 μg/ml, cultured for 2 weeks): elastic fibers were formed at a higher level than with the serum-containing medium
- localization of the added recombinant protein (anti-FLAG antibody) (human skin fibroblasts; serum-free medium, 4 μg/ml): co-localized with the elastic fibers formed
- formation of a homo-complex (DANCE): forms a homo-complex
- binding to lysyl oxidase (human lysyl oxidase): suggested to bind to lysyl oxidase
- binding to LTBP2 (LTBP2): binds to LTBP2
- cell adhesion activity [3]: cell adhesion was promoted with dependence on the concentration of the protein used for coating
